One molecule from paper PMC12668130, “RNA-induced PRC2 inhibition depends on the sequence of bound RNA” can be followed below.

Data set [1] concerns the target PRC2 five-subunit (EZH2-EED-SUZ12-RBAP48-AEBP2) (UniProt Q15910-2;O75530;Q15022;Q09028;Q6ZN18-3 1-751;1-441;1-739;1-425;1-301). The data set is described as follows: EMSA; 100 mM KCl; affinity near identical to six-subunit; EMSA: 50 mM Tris-HCl pH 7.5 (25 C), 100 mM KCl, 2.5 mM MgCl2, 0.1 mM ZnCl2, 2 mM 2-mercaptoethanol, 0.05 mg/ml BSA, 0.05 mg/ml yeast tRNA, 5% glycerol, 30 C 30. Particulars: protein: recombinant; tags: MBP tags, removed by Prescission protease; copies: 1;1;1;1;1; label: 5'-32P (EMSA, UV); 5'-biotin (EM); no G4. A general note: Mobility shift assays separate free from complexed probe on a gel.

Data set [2] concerns the target PRC2 four-subunit holoenzyme (EZH2-EED-SUZ12-RBAP48) (UniProt Q15910-2;O75530;Q15022;Q09028 1-751;1-441;1-739;1-425). In words: EMSA; 100 mM KCl; EMSA: 50 mM Tris-HCl pH 7.5 (25 C), 100 mM KCl, 2.5 mM MgCl2, 0.1 mM ZnCl2, 2 mM 2-mercaptoethanol, 0.05 mg/ml BSA, 0.05 mg/ml yeast tRNA, 5% glycerol, 30 C 30. Particulars: protein: recombinant; tags: MBP tags, removed by Prescission protease; copies: 1;1;1;1; label: 5'-32P (EMSA, UV); 5'-biotin (EM); no G4.

Chain of PRC2 four-subunit holoenzyme (EZH2-EED-SUZ12-RBAP48) (Q15910 other isoform, or with tags, fused parts or gaps, chain 1 of 4): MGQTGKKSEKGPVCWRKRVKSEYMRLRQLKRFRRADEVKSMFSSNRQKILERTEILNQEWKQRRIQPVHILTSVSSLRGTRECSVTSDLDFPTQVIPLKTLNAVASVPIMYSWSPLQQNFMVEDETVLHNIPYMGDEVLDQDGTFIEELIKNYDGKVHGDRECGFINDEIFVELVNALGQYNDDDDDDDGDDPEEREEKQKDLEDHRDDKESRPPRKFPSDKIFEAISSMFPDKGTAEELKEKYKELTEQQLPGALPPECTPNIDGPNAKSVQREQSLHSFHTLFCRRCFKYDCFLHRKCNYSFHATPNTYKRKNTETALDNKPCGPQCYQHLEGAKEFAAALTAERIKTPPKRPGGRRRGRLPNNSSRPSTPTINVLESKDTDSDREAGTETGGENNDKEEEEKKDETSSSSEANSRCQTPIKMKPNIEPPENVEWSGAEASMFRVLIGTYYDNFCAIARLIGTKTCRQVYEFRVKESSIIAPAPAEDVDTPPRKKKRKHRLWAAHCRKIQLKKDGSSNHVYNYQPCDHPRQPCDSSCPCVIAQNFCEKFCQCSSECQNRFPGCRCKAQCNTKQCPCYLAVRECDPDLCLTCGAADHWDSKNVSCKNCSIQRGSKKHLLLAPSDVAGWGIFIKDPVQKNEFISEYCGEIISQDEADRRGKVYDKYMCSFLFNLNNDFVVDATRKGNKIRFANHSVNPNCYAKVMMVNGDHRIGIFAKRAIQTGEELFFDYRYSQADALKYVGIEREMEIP
Chain of PRC2 four-subunit holoenzyme (EZH2-EED-SUZ12-RBAP48) (O75530 whole entry, chain 2 of 4): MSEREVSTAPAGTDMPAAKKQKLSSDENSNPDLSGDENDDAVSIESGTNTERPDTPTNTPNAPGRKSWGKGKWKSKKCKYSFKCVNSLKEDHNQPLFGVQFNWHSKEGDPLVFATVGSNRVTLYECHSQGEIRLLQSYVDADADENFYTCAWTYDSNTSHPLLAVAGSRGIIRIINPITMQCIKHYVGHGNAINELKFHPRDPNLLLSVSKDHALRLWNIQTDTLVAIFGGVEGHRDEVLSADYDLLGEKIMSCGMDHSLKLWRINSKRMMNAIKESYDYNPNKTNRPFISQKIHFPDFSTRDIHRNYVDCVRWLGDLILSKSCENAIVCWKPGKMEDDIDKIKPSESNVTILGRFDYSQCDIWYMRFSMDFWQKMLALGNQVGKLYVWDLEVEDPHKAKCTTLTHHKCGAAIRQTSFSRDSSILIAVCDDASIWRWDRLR
Chain of PRC2 four-subunit holoenzyme (EZH2-EED-SUZ12-RBAP48) (Q15022 whole entry, chain 3 of 4): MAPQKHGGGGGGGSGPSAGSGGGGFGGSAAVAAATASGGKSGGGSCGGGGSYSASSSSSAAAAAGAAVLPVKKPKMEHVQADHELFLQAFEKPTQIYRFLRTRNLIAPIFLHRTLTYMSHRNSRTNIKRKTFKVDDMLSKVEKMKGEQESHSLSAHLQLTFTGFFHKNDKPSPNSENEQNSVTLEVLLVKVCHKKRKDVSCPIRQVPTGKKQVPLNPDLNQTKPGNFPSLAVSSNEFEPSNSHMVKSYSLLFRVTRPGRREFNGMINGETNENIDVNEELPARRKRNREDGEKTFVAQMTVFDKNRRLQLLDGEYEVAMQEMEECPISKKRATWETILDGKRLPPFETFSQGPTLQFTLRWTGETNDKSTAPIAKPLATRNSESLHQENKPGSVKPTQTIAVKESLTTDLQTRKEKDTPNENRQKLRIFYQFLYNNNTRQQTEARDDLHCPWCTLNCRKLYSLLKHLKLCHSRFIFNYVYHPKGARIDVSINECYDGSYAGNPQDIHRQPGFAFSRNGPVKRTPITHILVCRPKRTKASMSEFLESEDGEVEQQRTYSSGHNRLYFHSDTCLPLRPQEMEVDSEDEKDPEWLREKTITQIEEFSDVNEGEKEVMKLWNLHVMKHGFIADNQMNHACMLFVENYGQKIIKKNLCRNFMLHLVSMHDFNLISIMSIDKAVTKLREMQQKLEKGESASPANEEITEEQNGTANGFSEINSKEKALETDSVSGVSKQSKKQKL
Chain of PRC2 four-subunit holoenzyme (EZH2-EED-SUZ12-RBAP48) (Q09028 whole entry, chain 4 of 4): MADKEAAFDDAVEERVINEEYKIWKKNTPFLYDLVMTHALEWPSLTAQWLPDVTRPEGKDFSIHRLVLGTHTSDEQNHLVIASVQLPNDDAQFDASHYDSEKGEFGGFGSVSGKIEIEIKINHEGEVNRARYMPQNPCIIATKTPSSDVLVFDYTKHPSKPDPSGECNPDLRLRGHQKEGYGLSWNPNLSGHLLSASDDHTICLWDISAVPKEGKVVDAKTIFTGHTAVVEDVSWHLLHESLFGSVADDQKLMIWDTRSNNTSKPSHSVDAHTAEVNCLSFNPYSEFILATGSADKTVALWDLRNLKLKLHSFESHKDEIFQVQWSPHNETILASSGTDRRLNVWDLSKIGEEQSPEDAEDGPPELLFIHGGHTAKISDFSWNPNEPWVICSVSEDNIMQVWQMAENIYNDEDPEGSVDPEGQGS

For AAAAAAAAAAGAGAGAGAUGAGUGUGAGUGUGAGUGUGAGUGAGAGAGAG (ssRNA) [TERRAmut], the binding signal worked out at 4 Kd ratio TERRAmut/TERRA in data set [1] and 12 Kd ratio TERRAmut/TERRA in data set [2].
